Substitutions are numbered along the chain they refer to.

Sequences and labels used below:
T1: human BMP-11 (GDF-11; R&D Systems) (human, UniProt O95390 299-407)
T1 sequence (looked up): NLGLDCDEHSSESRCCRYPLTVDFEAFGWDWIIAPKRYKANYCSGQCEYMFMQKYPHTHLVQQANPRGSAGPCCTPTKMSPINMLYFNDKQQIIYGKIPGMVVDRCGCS

T2: human myostatin (mature, recombinant; R&D Systems) (human, UniProt O14793 267-375)
T2 sequence: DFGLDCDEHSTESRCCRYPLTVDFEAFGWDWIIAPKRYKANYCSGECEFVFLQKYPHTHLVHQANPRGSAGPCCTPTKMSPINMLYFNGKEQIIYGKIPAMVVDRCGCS

T3: human Activin A (R&D Systems) (human, UniProt P08476 311-426)
T3 sequence (looked up): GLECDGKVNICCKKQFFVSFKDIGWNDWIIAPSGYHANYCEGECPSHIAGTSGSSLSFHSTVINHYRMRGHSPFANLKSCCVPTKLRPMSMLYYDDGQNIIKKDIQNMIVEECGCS

B1: ATI-1275 [N-ethylmaleimide] (designed binder)
chain: MGVSDVPRDLEVVAATPTSLLISWYLPYPAHMNYYRITYGETGGNSPVQEFTVPGRGLTATISGLKPGVDYTITVYAVTLTKSQILHHRPISINYRTEGSGCHHHHHH
modifications: N-ethylmaleimide on the Cys of the EGSGC tail
notes: cysteine mutant of 2524_D09
B2: ATI-1277 [N-ethylmaleimide] (designed binder)
chain: B1 chain with Y25S, P29A, A30G, M32L, L58V, I85L, L86I, H88Y, R89M
modifications: N-ethylmaleimide on the Cys of the EGSGC tail
notes: cysteine mutant of 2525_D05
B3: 2524_D09 (designed binder)
chain: MGVSDVPRDLEVVAATPTSLLISWYLPYPAHMNYYRITYGETGGNSPVQEFTVPGRGLTATISGLKPGVDYTITVYAVTLTKSQILHHRPISINYRTEIDKPSQHHHHHH
B4: 2525_D02 (designed binder)
chain: MGVSDVPRDLEVVAATPTSLLISWTLPHAGRAHYYRITYGETGGNSPVQEFTVPGRGVTATISGLKPGVDYTITVYAVTVTTTSVILYKPISINYRTEIDKPSQHHHHHH
B5: 2525_B01 (designed binder)
chain: MGVSDVPRDLEVVAATPTSLLISWTLPNFGLINYYRITYGETGGNSPVQEFTVPGRGVTATISGLKPGVDYTITVYAVTITKSTIIIYKPISINYRTEIDKPSQHHHHHH
B6: 2987_H07 (designed binder)
chain: B4 chain with S84K, L87H
B7: 2524_H05 (designed binder)
chain: B5 chain with T25S, N28Y, F29S, I32A, I80L, K82H, T84N, I87R, K89V
B8: 3115_E06 (designed binder)
chain: MGVSDVPRDLEVVAATPTSLLISWDAPAGLARYYRITYGETGGNSPVQEFTVVGRGNTATISGLKPGVDYTITVYAVTIFRDGPVTWDPISINYRTEIDKPSQHHHHHH
B9: 3006_A10 (designed binder)
chain: B8 chain with A28G, V53I, N57S, F80D, P84V, V85N, T86H, W87F, D88A
B10: 3116_H06 (designed binder)
chain: B8 chain with P84V, T86N, W87Y, D88G
B11: 3116_A07 (designed binder)
chain: B8 chain with A28K
B12: 3115_D04 (designed binder)
chain: B8 chain with A28R, V53F, N57T, F80D, P84T, V85R, T86S, W87F
B13: 3008_B08 (designed binder)
chain: B4 chain with T25S, R31D, T82R, T83A, S84G, V85F, I86Y, L87R
B14: 3008_G03 (designed binder)
chain: B5 chain with T25S, N28H, F29P, I32G, N33H, K82P, S83E, I87V
B15: 3116_C01 (designed binder)
chain: B4 chain with T25S, H28N, A29P, R31I, V80L, T82G, T83S, S84D, V85T, L87F
B16: 3008_D04 (designed binder)
chain: B4 chain with T25S, A29N, R31V, T82R, T83E, S84E, L87S
B17: 3008_F01 (designed binder)
chain: B4 chain with T25S, H28R, A29Q, R31L, H33N, T82A, T83A, S84G, L87I
B18: 3116_C06 (designed binder)
chain: B4 chain with T25S, H28R, A29P, R31N, T82G, T83K, S84D, L87K
B19: 3008_G01 (designed binder)
chain: B4 chain with T25S, H28G, A29P, R31H, A32F, T82A, T83N, S84Q, V85P, L87I
B20: 3146_A08 (designed binder)
chain: B4 chain with T25S, H28N, A29P, R31N, T82D, S84G, V85F, L87T
B21: ATI-1267 [N-ethylmaleimide] (designed binder)
chain: MGVSDVPRDLEVVAATPTSLLISWTLPHAGRAHYYRITYGETGGNSPVQEFTVPGRGVTATISGLKPGVDYTITVYAVTVTTTSVILYKPISINYRTEGSGCHHHHHH
modifications: N-ethylmaleimide on the Cys of the EGSGC tail
notes: cysteine mutant of 2525_D02

The first assay deals with T1, human BMP-11 (GDF-11; R&D Systems). The experiment in a line: cell-based or functional assay.
Turning to B1, the “ARE-luciferase IC50” value was 0.14 nM.
The same measure, in the same setting: the value for B2 was 1.18 nM.
Same read-out and setting: the value for B3 was 0.55 nM; that for B4 was 1.1 nM.
On the same count and under the same terms, the value for B5 was 3.2 nM; that for B6 was 5.5 nM; that for B7 was 7.3 nM.
For B8, the “ARE-luciferase IC50” value stood at 2 nM.
Take B9: the “ARE-luciferase IC50” value is 2 nM.
Still for that read-out and setting: the same measure for B10: 1.6 nM.
Regarding B11, the “ARE-luciferase IC50” value is 0.5 nM.
The same measure, in the same setting: the value for B12 was 3.6 nM; that for B13 was 9.3 nM; that for B14 was 1.3 nM.
Take B15: the “ARE-luciferase IC50” value turned out to be 6.7 nM.
For the molecule B16, the “ARE-luciferase IC50” value is 1.2 nM.
Same read-out and setting: the same measure for B17: 0.12 nM.
The same measure, in the same setting: the same measure for B18: 8.9 nM; for B19: 0.31 nM; for B20: 48 nM.
Take B21: the “ARE-luciferase IC50” value stood at 0.5 nM.

The target in a further assay is T2, human myostatin (mature, recombinant; …). As to the kind of experiment: cell-based or functional assay.
As to B1, the “ARE-luciferase IC50” value stood at 0.03 nM.
For the molecule B2, the “ARE-luciferase IC50” value came to 0.14 nM.
Take B3: the “ARE-luciferase IC50” value was found to be 0.06 nM.
With B4, the “ARE-luciferase IC50” value came out at 0.05 nM.
Consider B5, for which the “ARE-luciferase IC50” value is 0.11 nM.
Same read-out and setting: the value for B6 was 0.02 nM; that for B7 was 0.09 nM.
The same measure, in the same setting: the value for B8 was 0.07 nM.
The same measure, in the same setting: the same measure for B9: 0.08 nM; for B10: 0.1 nM; for B11: 0.04 nM.
For B12, the “ARE-luciferase IC50” value amounted to 0.16 nM.
Still for that read-out and setting: the same measure for B13: 0.35 nM.
On the same count and under the same terms, the value for B14 was 0.09 nM; that for B15 was 0.1 nM; that for B16 was 0.09 nM.
Still for that read-out and setting: the same measure for B17: 0.08 nM.
Take B18: the “ARE-luciferase IC50” value was 0.14 nM.
The same measure, in the same setting: the value for B19 was 0.03 nM; that for B20 was 0.7 nM; that for B21 was 0.06 nM.

Another assay concerns the target T3, human Activin A (R&D Systems). The experiment in a line: cell-based or functional assay.
On to B1, for which the “ARE-luciferase IC50” value turned out to be 19 nM.
The same measure, in the same setting: the same measure for B2: 2000 nM; for B3: 84 nM; for B4: 345 nM.
Still for that read-out and setting: the value for B5 was 73 nM.
On to B6, for which the “ARE-luciferase IC50” value was greater than 400 nM.
Still for that read-out and setting: the same measure for B7: greater than 1000 nM; for B8: greater than 1000 nM; for B9: greater than 2000 nM.
The same measure, in the same setting: the same measure for B10: greater than 1000 nM; for B11: greater than 1000 nM; for B12: greater than 1000 nM.
The same measure, in the same setting: the same measure for B13: 254 nM.
For B14, the “ARE-luciferase IC50” value is greater than 2000 nM.
Still for that read-out and setting: the value for B15 was 1000 nM; that for B16 was 720 nM; that for B17 was greater than 2000 nM.
For B18, the “ARE-luciferase IC50” value was greater than 1000 nM.
The same measure, in the same setting: the value for B19 was greater than 2000 nM; that for B20 was greater than 1000 nM.
Same read-out and setting: the same measure for B21: 644 nM.

The next assay has as its target T2, human myostatin (mature, recombinant; …). As to the kind of experiment: cell-based or functional assay. This is another data set of the same source.
Regarding B3, the “pSmad2 IC50, 12-point” value was found to be 0.11 nM.
Same read-out and setting: the value for B4 was 0.36 nM; that for B5 was 0.14 nM.
On the same count and under the same terms, the value for B7 was 0.13 nM.
Take B8: the “pSmad2 IC50, 4-point” value was 60 pM.
Regarding B9, the “pSmad2 % inhibition at 10 nM” value worked out at 51%.
For B10, the “pSmad2 IC50, 4-point” value came to 60 pM.
The same measure, in the same setting: the value for B11 was 60 pM; that for B12 was 60 pM.
As to B13, the “pSmad2 % inhibition at 10 nM” value was found to be 90%.
For the molecule B14, the “pSmad2 % inhibition at 10 nM” value was 91%.
In the case of B15, the “pSmad2 IC50, 4-point” value came out at 0.26 nM.
With B16, the “pSmad2 % inhibition at 10 nM” value was 92%.
On the same count and under the same terms, the value for B17 was 86%.
Consider B18, for which the “pSmad2 IC50, 4-point” value was 0.73 nM.
For B19, the “pSmad2 % inhibition at 10 nM” value was determined as 98%.
As for B20, the “pSmad2 IC50, 4-point” value was 0.78 nM.

Another assay deals with T1, human BMP-11 (GDF-11; R&D Systems). As to the kind of experiment: SPR format A, 25C. The source says:
(§1) Anti-human Fc antibody (Biacore/GE) was immobilized on a Biacore CM5 chip via NHS/EDC coupling according to the manufacturer's instructions. […] A concentration range of anti-myostatin Adnectin was applied across all flow cells in HBSP running buffer. Regeneration of the chip surface between cycles was accomplished with two 30 second pulses of 3M MgCl₂. Kinetic traces of reference-subtracted sensorgrams were fit to a 1:1 binding model using Biaevaluation software.
The molecule B1 displayed a dissociation constant (Kd) of 0.15 nM.
The same measure, in the same setting: the value for B2 was 0.14 nM; that for B3 was 0.81 nM.
Same read-out and setting: the same measure for B4: 0.3 nM; for B5: 1.58 nM; for B6: 2.25 nM.
On the same count and under the same terms, the value for B7 was 0.87 nM.
B21 showed a Kd of 0.065 nM.

The target of the next assay is T2, human myostatin (mature, recombinant; …). The experiment in a line: SPR format A, 25C.
Source text: as §1
Regarding B1, the Kd stood at 0.15 nM.
B2: the Kd turned out to be 0.16 nM.
Consider B3, for which the Kd is 0.64 nM.
In the case of B4, the dissociation constant (Kd) came to 0.24 nM.
The same measure, in the same setting: the same measure for B5: 1.29 nM.
On the same count and under the same terms, the same measure for B6: 0.99 nM.
On to B7, for which the Kd was 0.88 nM.
As to B21, the dissociation constant (Kd) stood at 0.057 nM.

The next assay has the same target. The experiment in a line: competitive HTRF (1889E01/myostatin/ActRIIb-Fc sandwich). The source says: An HTRF assay was used to measure the binding affinities of anti-myostatin Adnectins to myostatin. […] The Eu-W 1024 labeled Streptavidin is used to bind biotinylated 1889E01. […] In the presence of a competitive Adnectin, the HTRF signal decreases.
Consider B1, for which the half-inhibitory concentration (IC50) amounted to 0.19 nM.
On the same count and under the same terms, the value for B2 was 0.38 nM; that for B8 was 0.14 nM; that for B9 was 0.15 nM.
On the same count and under the same terms, the value for B10 was 0.13 nM.
On the same count and under the same terms, the value for B11 was 0.11 nM.
On to B12, for which the IC50 turned out to be 0.2 nM.
Regarding B13, the IC50 was determined as 0.37 nM.
On the same count and under the same terms, the same measure for B14: 0.13 nM; for B15: 0.35 nM; for B16: 0.14 nM.
The same measure, in the same setting: the value for B17 was 0.21 nM; that for B18 was 0.18 nM; that for B19 was 0.11 nM.
The same measure, in the same setting: the same measure for B20: 0.26 nM; for B21: 0.12 nM.

Usually Kd stands for the concentration at which binding is half-saturated. The IC50 is the concentration that inhibits the measured activity by half.
